This passage reports amyloid nucleation score results from the supplement of paper PMC12042874.

± gives the uncertainty stated by the source.

The nature of the data set: amyloid nucleation score (Sup35N fusion, yeast selection) (log enrichment); library NNK2; higher = more nucleation; inactive = no reads after selection. In a few lines: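 The nucleation score is the log enrichment of output over input reads, calculated with DiMSum and centred on the mode score of non-aggregating sequences. Sequences with under 100 input reads were excluded. Reads came from Illumina sequencing of plasmid inserts from psi-negative yeast expressing Sup35N fused to peptides of 20 random codons, induced 24 hours with 100 μM copper sulfate and grown 7 days at 30°C without adenine and uracil.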
As for ETVFRLFFSYRGVANHVVPG, the amyloid nucleation score is -0.408 ± 0.63. With CRDSPVKNQGPYLGFM, the amyloid nucleation score entry is “inactive”. The value for CDKQRFSRF was “inactive”. In turn, NALGRMCGSWRLVIHISDWW returned an amyloid nucleation score of 0.236 ± 0.23.

NTEEDDKRVRMGELVVEYSN: the amyloid nucleation score was 1.36 ± 0.17.

In the case of KYENYLCITFMGCLLGMRSE, the amyloid nucleation score result was “inactive”. GTMQFIVICNSDVFVSWLPN displayed an amyloid nucleation score of 7.253 ± 0.071.

Substance YEIFGRTNPMMVDKNNAIWV had an amyloid nucleation score of -0.691 ± 0.42. For HPHKS, the amyloid nucleation score is -0.325 ± 0.76. Substance ILWWFRVTAHAWEDETGWMW registered an amyloid nucleation score of 0.098 ± 0.23. With RVDCPYSGNVLTRVGNRCWA, the amyloid nucleation score turned out to be 0.729 ± 0.25. The value for GRSGFYCIHKMSVDTFIQKA was 4.27 ± 0.074. Substance RTNVWASDI yielded an amyloid nucleation score of -0.32 ± 0.39. Take AYWVQGCLLQMRMT: the amyloid nucleation score was determined as 0.891 ± 0.22. The same measure for MNCVGG: -0.389 ± 0.61; for LIFYIVNHECINGRYALVGY: 0.448 ± 0.62; for VKNWVISCGGILNDARRLFD: -0.78 ± 1.1. The same measure for LRLFSFIVMGHNGVKHLVLC: 0.011 ± 0.8; for VFNLL: “inactive”.

RMCVWHMLVIGVRGKTGATR yielded an amyloid nucleation score of 3.01 ± 0.11. As to RQLLTKCLCASTGGFIFSWD, the amyloid nucleation score amounted to 0.792 ± 0.8.

Take FLQLLDNFALLDLVG: the amyloid nucleation score was -0.12 ± 0.79. On to NCSHGLHLNVFNLVPYKSLI, for which the amyloid nucleation score turned out to be 4.9 ± 0.096. The same measure for LGSWR: -0.829 ± 1.1. Substance LAAWLWYTWKG showed an amyloid nucleation score of 0.589 ± 0.66.

VSMEKVRSDGMDRFASGFAA yielded an amyloid nucleation score of 0.361 ± 0.29. As for VVYVVHFYFEYVGNVVARAK, the amyloid nucleation score result is “inactive”. Take FKSTNLMAWIFGMYIVFLGF: the amyloid nucleation score was -0.08 ± 1.

For CYVNWGCNGEISGIVFDSMK, the amyloid nucleation score result was “inactive”. The value for ARFASIWVWTLGDCWRKCSY was -0.152 ± 0.76.

RAEVNA returned an amyloid nucleation score of 0.517 ± 0.26. The same measure for CAWFLTRWTVLSDLEGFY: -1.35 ± 0.49; for NWSGMPLPFLTFRKRFVEV: -0.998 ± 1. The value for TVSKDDMTALVSAIMASNRW was 1.06 ± 0.32; that for GTWMWETFCRLTFVFGIRRG was -0.264 ± 0.54. FMGVKRVVTRVVCLQIGQPT gave an amyloid nucleation score of 7.11 ± 0.071. With DSFSSWYDFQFVWSVTVNRM, the amyloid nucleation score result is “inactive”.

FHMRFMMVFIRLKTRTKLIL: the amyloid nucleation score is -0.797 ± 0.42. In turn, IGVSNLLCMFTLDPKGIQDG came in with an amyloid nucleation score of 8.488 ± 0.056. The substance IFRLELNTIIPPSQYNASAH had an amyloid nucleation score of 4.57 ± 0.1. ALRISQFCIL came in with an amyloid nucleation score of -0.261 ± 1.1.

DPKHATYAKQRSGMYRYGHW: the amyloid nucleation score came to 0.691 ± 0.43. As for CLSPW, the amyloid nucleation score was found to be 0.202 ± 0.46. HNSCVSITSKLQCPLRTVSG displayed an amyloid nucleation score of 0.252 ± 0.65.

As for SSFVIPSKR, the amyloid nucleation score is -1.31 ± 0.78. On to LWDLRSEYKFYINMDHFMTV, for which the amyloid nucleation score is -1.4 ± 0.75. The value for FIADLSDMW was -0.916 ± 1.1; that for LSVSCGVKCLEWADMMAHQV was -0.533 ± 0.54. Take KSSNHITRFRSHSMETSRMV: the amyloid nucleation score entry is “inactive”. The same measure for LCVLLHVTEKLKANSTLSCV: -0.317 ± 1.1. Take IEQFTVNLLTRRLKNSMGQN: the amyloid nucleation score was -0.544 ± 0.79. CSKDMSQKLVYRLWSIIVMA displayed an amyloid nucleation score of -0.542 ± 0.33. The substance RSTLDQRRFGNRF yielded an amyloid nucleation score of 0.063 ± 1.1. Take TFDRCPNNSGNDMTNGPESW: the amyloid nucleation score came to 1.21 ± 0.096. The value for YAMCTWSV was 1.88 ± 0.13. The substance CKALQLLKGNLIDYCVPFLV had an amyloid nucleation score of -1.05 ± 0.48. With YSCRGEVKLKCDTSVGGPRR, the amyloid nucleation score turned out to be 0.922 ± 0.2. Consider VQVVLNSETSSCASLRCMTY, for which the amyloid nucleation score was 8.047 ± 0.029. IRPINGSWGVSTNCKVYDYV gave an amyloid nucleation score of -0.011 ± 1.1.

Substance RTGRRSAFCTSVRRLNPDCL returned an amyloid nucleation score of 1.17 ± 0.41. As for FVSLWT, the amyloid nucleation score amounted to 0.277 ± 0.45. As for GGPSGQFCYPGGNKGYCN, the amyloid nucleation score was -0.724 ± 1. In turn, VSNPSGVREPATTGGQSLAI had an amyloid nucleation score of 0.966 ± 0.47.

As to GSSVDNACQSDLPVQVSMKF, the amyloid nucleation score was -0.478 ± 0.64.

As for FLFMLLSPVSMARLDKVMMG, the amyloid nucleation score was determined as 0.313 ± 0.65. Take CQGVSYHYLTACRNKLCHES: the amyloid nucleation score came to 0.107 ± 0.79.

With NPSCTRKVLVYSY, the amyloid nucleation score stood at 0.359 ± 0.43. In the case of PYWYYVFCS, the amyloid nucleation score is -0.689 ± 0.49. Take TFYYTAECWAWRNMQESSHT: the amyloid nucleation score came to 0.054 ± 0.32. For the substance HPGMVVIAE, the amyloid nucleation score came out at 3.97 ± 0.075. The substance RSSRVEYSCLDGRMRELRGS returned an amyloid nucleation score of -0.443 ± 0.48. The substance DSLTQILTVSCVCYEESMRI came in with an amyloid nucleation score of -0.613 ± 0.48.

SLLSWRFVFCCMEYRVFLVV: the amyloid nucleation score result is “inactive”. Substance HLVVSMVRTLVCHFCRFDVS registered an amyloid nucleation score of 1.28 ± 0.41. In turn, HCSFG showed an amyloid nucleation score of 2.32 ± 0.12.

Regarding NLRMVG, the amyloid nucleation score is 0.182 ± 1.1. Turning to LVWGVP, the amyloid nucleation score is -0.945 ± 0.76.

FSCHWAIMTRSGKVEVCNNQ yielded an amyloid nucleation score of 5.47 ± 0.069. For the substance RPPSIYC, the amyloid nucleation score was -0.477 ± 0.49. DLVVELGESQQPWPLVRSRP displayed an amyloid nucleation score of 0.6 ± 0.64. The value for TYSGEIKL was “inactive”; that for GLRYIS was -0.102 ± 0.5; that for NSLHSDSVLIKERDADKSTR was 1.73 ± 0.14. In the case of AICMAY, the amyloid nucleation score turned out to be 1.27 ± 0.095. The value for CFDPGTNRCLPWAVGVGELG was 0.959 ± 0.74; that for MFTVRWASFCVVINSSY was 2.91 ± 0.069. Turning to YYSFSGRATWGRNKSFMWVA, the amyloid nucleation score is 0.089 ± 1.1. As for LVALVLPGRINENKYVCGD, the amyloid nucleation score was -0.588 ± 0.49. The substance VFYTFMTSALGIRVTRSSCL gave an amyloid nucleation score of 1.12 ± 0.22. As to AVEQWQ, the amyloid nucleation score was determined as 1.58 ± 0.37. On to YPLCARILLNKDLWDGYLNS, for which the amyloid nucleation score result was “inactive”. The value for TFTVKCTDGGSCF was 1.01 ± 0.24; that for CMLCARLHH was 4.13 ± 0.056; that for RRCEGCN was -0.299 ± 1. Substance IKQSYTYNPK displayed an amyloid nucleation score of 1.87 ± 0.12. On to NIVKGFRCLCVNLTDFRETR, for which the amyloid nucleation score came to 4.09 ± 0.12.

Substance STCIMDLSWCKVRRFGSTQV had an amyloid nucleation score of -0.149 ± 0.79.

LTRQYNNRNPMSLRAIGYAF: the amyloid nucleation score result is “inactive”. For IWSYSSFGVD, the amyloid nucleation score was -0.064 ± 1.1. Consider NFGADVDRFNRVEGSSDFHG, for which the amyloid nucleation score stood at 0.285 ± 0.54. The same measure for LFARLLLHYVTS: 9.204 ± 0.08; for LSRRMDMRSSTSALHVSIQL: 6.413 ± 0.064. KDRRRVDMLRLGR: the amyloid nucleation score turned out to be 1.36 ± 0.26. Substance EHVFMSAHFLLNSQRKKN returned an amyloid nucleation score of -1.9 ± 0.75. In turn, FLYLIMKGPLAVKYCIKSLG showed an amyloid nucleation score of -0.545 ± 0.76. In the case of AKKLMSWEAVVLWGASRCVT, the amyloid nucleation score is 1.08 ± 0.42. Take VKLEMD: the amyloid nucleation score is -0.617 ± 0.21.

The substance LVYCSLLNLILWMSAYI yielded an amyloid nucleation score of -0.518 ± 0.45. For SSTHVPLRVFHGEIMWQQIL, the amyloid nucleation score is -0.291 ± 1.1.

On to KCLSRTQTYACSP, for which the amyloid nucleation score amounted to 1.78 ± 0.21. The same measure for QFVSDALVWGGITSMGWLMR: 0.756 ± 0.4; for AGPDSVQCRCSLKSSEGSCG: 6.776 ± 0.066; for SCTWRRGFSSQVKYMNRQSI: 0.989 ± 0.13. The value for VVLTAVHFQCLLTLTVPIEV was -0.158 ± 0.48; that for ARNPDFRCDSASI was -0.146 ± 1. For the substance LNFGMY, the amyloid nucleation score was -0.772 ± 0.78. With QHFDLVATGMGYSWAMLYFA, the amyloid nucleation score came to 0.776 ± 0.43. FDDLLEARYSFSVKVCY yielded an amyloid nucleation score of -0.947 ± 0.35. On to SNVSVYPTMWGRVVHRPYTW, for which the amyloid nucleation score was 0.032 ± 0.39. With NIDICDVWFMNCLYIILVAQ, the amyloid nucleation score was determined as 5.192 ± 0.031.

Take KWFLGCRVDHRMRVRMCLQ: the amyloid nucleation score was -0.292 ± 0.54. Regarding NQTGSRYRVFGNFHVTACFV, the amyloid nucleation score came to 0.838 ± 0.18.

Regarding AMQVVTVLNATACEMWAMGL, the amyloid nucleation score was 7.498 ± 0.034.

Take HELAIISN: the amyloid nucleation score worked out at 2.97 ± 0.17. TLLSASYGV gave an amyloid nucleation score of -0.742 ± 0.79. The value for RKGCWSL was 1.65 ± 0.34. The same measure for IMHCVHKSRILSSVTKIKEP: “inactive”; for CLMWVISNSYNECHLGEVGQ: 6.56 ± 0.087; for ISNLQGFLLQNSDLAHSWVA: 1.28 ± 0.15. Consider CHLLSRSCKFYGD, for which the amyloid nucleation score is -0.898 ± 1.1.

The substance YWTNPYEMFISHYNKVFAFF had an amyloid nucleation score of -0.436 ± 1.1. With GSKSCRDYNIKFIYDRYFMG, the amyloid nucleation score entry was “inactive”. AGLLPENYFSCILGINVVIF displayed an amyloid nucleation score of 3.13 ± 0.065.

LRSPWLF displayed an amyloid nucleation score of -0.687 ± 0.79. With IEGTVRYYPVSNFT, the amyloid nucleation score result was “inactive”. The substance WYVYSESRIS showed an amyloid nucleation score of -0.267 ± 0.42. As for SAIRLMGG, the amyloid nucleation score turned out to be 5.378 ± 0.048. The value for DNSIRTLEILKSGNIVRGPR was “inactive”. LFLFGSV: the amyloid nucleation score amounted to 0.28 ± 0.62. Turning to NYFSTDMGFCLRDTYCRCEI, the amyloid nucleation score was determined as 4.68 ± 0.089.

LCIFYNWRCV yielded an amyloid nucleation score of 6.76 ± 0.024.
